Test results from the supplement of paper PMC10126150.
± gives the standard deviation of the averaged measurements.

test system: ATP; assay: switch fluorescence ratio, 500 uM ATP over buffer (Cy3 cluster intensity, sum of 5 cycles each) (fold (ratio)); higher = stronger signal-on switching upon ATP binding; sequences stand for … in TCGTCGGCAGCGTCAGATGTGTATAAGAGACAGTTTTTTTTTTTTTTTTTTTTTTTTT…TC; conditions: aptamer strand: ATP DNA aptamer (quencher-CACCTGGGGGAGTATTGCGGAGGAAGG + anchor), 100 nM annealed; ATP concentration: 500 uM
Summary of the method: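 Cy3-labelled switching-strand clusters on a modified Illumina MiSeq flow-cell were annealed to 100 nM quencher-labelled ATP aptamer and imaged first in selection buffer, then after 15 min with 500 uM ATP at 22 °C. NaOH stripping and re-annealing separated each of five buffer/ATP cycles, and clusters outside 100-1000 RFU were excluded. The fluorescence ratio sums target-cycle Cy3 intensity over buffer-cycle Cy3 intensity per cluster and averages it per switch-domain sequence.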
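Also: ATP exposure 15 min at 22 °C before imaging.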

| Sequence | switch fluorescence ratio |
| --- | --- |
| ATGAGCATTC | 1.18 ± 0.026 |
| AGTCACTTAG | 1.05 ± 0.015 |
| AGGCGCAGGG | 0.9982 ± 0.0089 |
| GGTATGAAGG | 0.9664 ± 0.0095 |
| ATAGGGTAAG | 0.965 ± 0.018 |
| GGATGAACGG | 1.01 ± 0.079 |
| GGGGATTGTT | 1 ± 0.033 |
| CTTAAATATG | 1 ± 0.012 |
| TCCCATTTTG | 1.01 ± 0.043 |
| TTGAAATCGC | 1.01 ± 0.041 |
| TATCGGGGT | 0.989 ± 0.013 |
| TGGATCGTAG | 0.978 ± 0.011 |
| TTCCAAATTG | 0.993 ± 0.017 |
| GAGGGAGCAG | 1.01 ± 0.017 |
| GCATATGGCT | 1 ± 0.031 |
| TATATCAGTC | 1.02 ± 0.058 |
| CGGAGTGCTT | 1.03 ± 0.021 |
| TTAGTGAGGT | 1 ± 0.027 |
| TTGTATTGGA | 0.995 ± 0.015 |
| CCTTGTTTGG | 1.01 ± 0.011 |
| CATCTGTGCG | 1.02 ± 0.016 |
| TTTTTCCGGC | 1.063 ± 0.0063 |
| CCCTTTTGGG | 0.997 ± 0.035 |
| TTTTGTGGTC | 1.02 ± 0.017 |
| TAAAAAGA | 0.9496 ± 0.005 |

| Sequence | switch fluorescence ratio |
| --- | --- |
| GGGAGGGTTA | 0.996 ± 0.055 |
| AGCGGTTATT | 1.004 ± 0.0044 |
| GGGCTAGGCA | 1.02 ± 0.014 |
| GAATGTTCAG | 1.02 ± 0.024 |
| TCATTTCTGC | 1.01 ± 0.037 |
| GATCCGGGTG | 1.38 ± 0.45 |
| TGGGGGCCCG | 0.995 ± 0.047 |
| ATAGTTTTTT | 0.977 ± 0.017 |
| GTTGTACTTG | 0.988 ± 0.005 |
| AAAGTCAGTA | 0.9818 ± 0.007 |
| GGATGGAGGG | 0.965 ± 0.02 |
| TCATTAAGGG | 0.99105 ± 0.00093 |
| AGGCGGTGGC | 1.02 ± 0.11 |
| CGTGTGGCGT | 1.05 ± 0.016 |
| TAAGGGTACG | 1.03 ± 0.058 |
| ATGTAGACGG | 0.984 ± 0.011 |
| CAGGGTACGG | 1.01 ± 0.052 |
| GGCGCGTCCA | 0.994 ± 0.013 |
| CCTTTAATGT | 1.01 ± 0.022 |
| CCATTGGGGT | 0.995 ± 0.017 |
| ATAAATGACG | 1.02 ± 0.037 |
| CTGGGGGGGT | 0.994 ± 0.036 |
| TTTCGAGCGT | 1.01 ± 0.029 |
| CTTGTATTAG | 1.01 ± 0.012 |
| AGAAACGGAG | 1.02 ± 0.016 |

| Sequence | switch fluorescence ratio |
| --- | --- |
| AGTAAGTCTG | 0.969 ± 0.02 |
| CACGGTGGCT | 1.01 ± 0.03 |
| TGCGGGCGTT | 0.993 ± 0.013 |
| TTTTTATGGG | 1.03 ± 0.077 |
| CTACGATCGA | 1.02 ± 0.015 |
| TAGCAAGTG | 1.04 ± 0.041 |
| TGTAATCCGG | 0.986 ± 0.012 |
| TTAAGATGAG | 0.961 ± 0.035 |
| TTGCGTCATT | 1.03 ± 0.016 |
| AGCGGTATGC | 0.9804 ± 0.0073 |
| AAAACATAGC | 0.965 ± 0.056 |
| TACATAAGTT | 1.02 ± 0.0074 |
| TGTTTTAAAA | 0.99 ± 0.027 |
| CAGCTAGCGG | 0.97 ± 0.025 |
| TCGTAGCAGG | 1.12 ± 0.14 |
| CTTCAGGAAG | 0.9946 ± 0.0021 |
| AGCCTTAATT | 1 ± 0.025 |
| CATTACCGGA | 1.012 ± 0.0098 |
| TCTTTACGGT | 1.04 ± 0.045 |
| TGTCCAGCTC | 1.49 ± 0.65 |
| GGTGGATTGC | 1.04 ± 0.02 |
| ACAGTTCTAC | 1.03 ± 0.031 |
| TCTTAGATGA | 0.9765 ± 0.003 |
| GATATAGAGG | 0.986 ± 0.055 |
| ACGTAGGGTT | 1.08 ± 0.012 |

| Sequence | switch fluorescence ratio |
| --- | --- |
| ATGTAGAGGC | 0.987 ± 0.026 |
| ACCTGGAAAA | 0.999 ± 0.048 |
| TTAATATTTT | 0.985 ± 0.026 |
| GGTTAAGGCG | 0.9569 ± 0.0079 |
| TTTAAGCTGT | 0.978 ± 0.049 |
| TAGGGGCAGT | 1.09 ± 0.14 |
| TGGGTCTAGG | 0.99 ± 0.043 |
| TAGATGTGTT | 1.01 ± 0.023 |
| TCGGGTGGTT | 1 ± 0.016 |
| GCTACTGGAT | 1.007 ± 0.0058 |
| GCTTCGGCCT | 1.02 ± 0.058 |
| TTGCATACGT | 1.61 ± 0.76 |
| ACTAATAGTC | 1.02 ± 0.038 |
| ACATGGTTTT | 1.01 ± 0.017 |
| TAGATGCTTT | 0.96461 ± 0.00038 |
| CAGAGCTTTT | 1.05 ± 0.058 |
| TCGTGAGCGG | 0.996 ± 0.034 |
| CCTGGTACGT | 1.01 ± 0.034 |
| CTGTCTGCCG | 1.01 ± 0.017 |
| TTTCATTAAA | 0.994 ± 0.033 |
| TGTAAATAAG | 0.991 ± 0.043 |
| TTTAGGCAGG | 0.988 ± 0.022 |
| TACCAGTCGC | 1.03 ± 0.026 |
| TTAAGCACCT | 1.304 ± 0.013 |
| AGGTTCTATT | 0.9864 ± 0.0089 |

| Sequence | switch fluorescence ratio |
| --- | --- |
| TTGGGTGGTG | 0.983 ± 0.033 |
| TCACCTTGTT | 1.03 ± 0.037 |
| AATCATTTTG | 1 ± 0.018 |
| GAAATGGGGT | 0.977 ± 0.037 |
| TCGAGGGAAG | 0.998 ± 0.023 |
| GTAAATTTTT | 1.01 ± 0.017 |
| GTGAGGGGTG | 0.996 ± 0.032 |
| GGAAAGAACA | 0.9817 ± 0.0079 |
| TGTTTGGATG | 0.973 ± 0.029 |
| TGAAGGGGCC | 2.74 ± 2.5 |
| TTAAGGGAAA | 1.02 ± 0.02 |
| CGTTTGTCGG | 1.01 ± 0.059 |
| CGGATCTGAA | 1.01 ± 0.016 |
| TGACTGTGTG | 0.984 ± 0.017 |
| TGCGGGAGTA | 1.003 ± 0.0014 |
| TGGTTTAACG | 0.99243 ± 0.00051 |
| CTTAGTAGTA | 0.992 ± 0.019 |
| TATGATCAGG | 0.9933 ± 0.0025 |
| TTCAACGGGG | 0.9948 ± 0.0039 |
| GGATAGGAGC | 0.964 ± 0.033 |
| GGGCATGGAA | 0.969 ± 0.018 |
| ACATTCCAAA | 1.03 ± 0.013 |
| TGCAGGGGGG | 1.02 ± 0.039 |
| ACGAGGGCCA | 1.004 ± 0.0086 |
| TTTTAGGGAG | 0.992 ± 0.03 |

| Sequence | switch fluorescence ratio |
| --- | --- |
| TTGGGAGGTG | 1.05 ± 0.051 |
| TGGGTGTAGC | 0.986 ± 0.011 |
| GACTAGGAAG | 0.994 ± 0.022 |
| TCGGGGCCTT | 0.998 ± 0.033 |
| TGTGAAGTTT | 0.9595 ± 0.0076 |
| GACTTGGAAT | 1 ± 0.041 |
| GATGTTTCAT | 0.979 ± 0.018 |
| ATTATGGTTT | 1 ± 0.022 |
| TGGGGGGTTT | 1 ± 0.04 |
| CTAGATTCGT | 0.996 ± 0.017 |
| GGCACGAGGA | 1.04 ± 0.017 |
| TCCGGATTTT | 1.01 ± 0.016 |
| GGGTGGGGAG | 0.984 ± 0.045 |
| TGTGTGCCGG | 0.9332 ± 0.0057 |
| CCGGGGGTTT | 1.036 ± 0.0054 |
| CGAGGGTCGG | 1.01 ± 0.042 |
| GAGGGAAAAA | 1.44 ± 0.88 |
| GAGAGAAGTG | 0.945 ± 0.022 |
| CAGGGAAAAT | 0.982 ± 0.012 |
| CTTAGCTAGA | 1.0428 ± 0.00056 |
| GGGCCACTCG | 0.9716 ± 0.0096 |
| AAATGGTCGG | 0.974 ± 0.017 |
| TTTCGGTTAT | 1.02 ± 0.021 |
| TTTTTTTACG | 1.06 ± 0.041 |
| GGCCGTCGGA | 1.06 ± 0.091 |

| Sequence | switch fluorescence ratio |
| --- | --- |
| CGCCAGCAGC | 1.6 ± 0.035 |
| CAGCAGGCGT | 1.03 ± 0.021 |
| TTTGTTCATC | 0.97 ± 0.024 |
| TGAGGTCAGG | 0.982 ± 0.017 |
| GTTGTCTCCA | 0.985 ± 0.015 |
| GCGGGGCCTT | 0.9811 ± 0.004 |
| TCACGAGGCT | 1.038 ± 0.0097 |
| CCTTTGTTAT | 1.052 ± 0.0082 |
| ACTAGCTACT | 1.138 ± 0.0094 |
| TCGGAGATCG | 0.9443 ± 0.001 |
| CTTTTTATGG | 1.03 ± 0.033 |
| AACTGGGGC | 0.959 ± 0.062 |
| AGGGATAAAT | 1.01 ± 0.055 |
| GGATTAAGTG | 0.9616 ± 0.006 |
| CTGGGTATGA | 1.01 ± 0.024 |
| GCTGATTAG | 0.954 ± 0.011 |
| TATTTAAGGT | 1 ± 0.02 |
| ATCTAAACGT | 1.0574 ± 0.00082 |
| AGGGATGTCT | 1.02 ± 0.043 |
| AATTTGGGTT | 1.04 ± 0.053 |
| TTTTGATGTT | 0.988 ± 0.031 |
| TTGTGCAAAT | 1.009 ± 0.006 |
| GTTTTCGGGA | 1.03 ± 0.013 |
| CGCCTCGAGG | 0.9786 ± 0.0027 |
| TTAATGTGGC | 0.986 ± 0.015 |

| Sequence | switch fluorescence ratio |
| --- | --- |
| GCCCAATAAG | 1.03 ± 0.025 |
| ACTGTTAGGT | 1.036 ± 0.0055 |
| GAATCCGTTC | 1.07 ± 0.026 |
| CTGGCTTTGG | 1.05 ± 0.043 |
| AATTTCGGGT | 0.9877 ± 0.0096 |
| CACTTAAAAG | 1.05 ± 0.13 |
| GCTGGGTTGG | 1 ± 0.026 |
| ACAGGACGGA | 1.03 ± 0.013 |
| AGATTTGGGC | 1.02 ± 0.031 |
| TGGGGGGTTC | 1.04 ± 0.082 |
| AGATATGGCT | 0.979 ± 0.038 |
| CAAATTTGGG | 1.02 ± 0.014 |
| GTTTTTGTCG | 1.07 ± 0.056 |
| CTCTTCTGGT | 0.971 ± 0.04 |
| CAATTCATGG | 0.992 ± 0.073 |
| GATGGCCGCG | 1.03 ± 0.024 |
| GGTGCGGGCG | 1.02 ± 0.11 |
| AACCAGTATA | 0.995 ± 0.024 |
| AAGTTACGTT | 1.04 ± 0.081 |
| GGCCGCGGCC | 1.0014 ± 0.00091 |
| CATGGGGCCT | 0.9984 ± 0.0027 |
| GGGGTTACTG | 0.993 ± 0.034 |
| TCCGGCGGAC | 1.149 ± 0.0078 |
| TTCACCGGGA | 0.9932 ± 0.007 |
| GTGGTTGTTT | 1.01 ± 0.049 |
